Laboratory results as given in PMC2063960 (The Journal of Cell Biology, 2007).

Target: Myc-tagged dimeric ECDT (Myc-HR-ECDT) (UniProt P12830 731-882)
Experiment: co-IP

Chain of Myc-tagged dimeric ECDT (Myc-HR-ECDT) (P12830 731-882): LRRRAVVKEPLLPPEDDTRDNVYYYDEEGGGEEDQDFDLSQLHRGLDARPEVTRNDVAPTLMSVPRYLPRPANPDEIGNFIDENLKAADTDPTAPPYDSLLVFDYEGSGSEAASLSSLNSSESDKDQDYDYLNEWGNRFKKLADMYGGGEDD

B1: p120-catenin, endogenous in HEK293 cells (natural protein, human (endogenous in HEK293), UniProt O60716 1-968, looked up)
chain: MDDSEVESTASILASVKEQEAQFEKLTRALEEERRHVSAQLERVRVSPQDANPLMANGTLTRRHQNGRFVGDADLERQKFSDLKLNGPQDHSHLLYSTIPRMQEPGQIVETYTEEDPEGAMSVVSVETSDDGTTRRTETTVKKVVKTVTTRTVQPVAMGPDGLPVDASSVSNNYIQTLGRDFRKNGNGGPGPYVGQAGTATLPRNFHYPPDGYSRHYEDGYPGGSDNYGSLSRVTRIEERYRPSMEGYRAPSRQDVYGPQPQVRVGGSSVDLHRFHPEPYGLEDDQRSMGYDDLDYGMMSDYGTARRTGTPSDPRRRLRSYEDMIGEEVPSDQYYWAPLAQHERGSLASLDSLRKGGPPPPNWRQPELPEVIAMLGFRLDAVKSNAAAYLQHLCYRNDKVKTDVRKLKGIPVLVGLLDHPKKEVHLGACGALKNISFGRDQDNKIAIKNCDGVPALVRLLRKARDMDLTEVITGTLWNLSSHDSIKMEIVDHALHALTDEVIIPHSGWEREPNEDCKPRHIEWESVLTNTAGCLRNVSSERSEARRKLRECDGLVDALIFIVQAEIGQKDSDSKLVENCVCLLRNLSYQVHREIPQAERYQEAAPNVANNTGPHAASCFGAKKGKDEWFSRGKKPIEDPANDTVDFPKRTSPARGYELLFQPEVVRIYISLLKESKTPAILEASAGAIQNLCAGRWTYGRYIRSALRQEKALSAIADLLTNEHERVVKAASGALRNLAVDARNKELIGKHAIPNLVKNLPGGQQNSSWNFSEDTVISILNTINEVIAENLEAAKKLRETQGIEKLVLINKSGNRSEKEVRAAALVLQTIWGYKELRKPLEKEGWKKSDFQVNLNNASRSQSSHSYDDSTLPLIDRNQKSDKKPDREEIQMSNMGSNTKSLDNNYSTPNERGDHNRTLDRSGDLGDMEPLKGTTPLMQDEGQESLEEELDVLVLDDEGGQVSYPSMQKI
fold affinity against the monomer (Myc-ECDT): ~10 fold
